The values below come from publication PMC4817131, “Human DNA polymerase α in binary complex with a DNA:DNA template-primer”.

For data set [1], the target named is T1, DNA polymerase alpha catalytic core (p180, hPolα) (Homo sapiens, UniProt P09884 338-1259). Kind of data set: fluorescence anisotropy; 5 mM MgCl2, no dNTP; 50 mM Bis-Tris pH 6.5, 100 mM NaCl, 5 mM MgCl2, 23 °C; 2 nM labeled duplex, 0.1-16000 nM protein, >30 min. To be noted: protein: recombinant; tags: N-terminal His6-SUMO (His6-SMT) removed by SUMO protease; label: 5' 6-FAM on template; template 5' overhang 20 nt, one replicative end. A general note: Fluorescence polarisation rises when a labelled molecule tumbles more slowly, as on binding a larger partner.
T1 sequence (P09884 338-1259): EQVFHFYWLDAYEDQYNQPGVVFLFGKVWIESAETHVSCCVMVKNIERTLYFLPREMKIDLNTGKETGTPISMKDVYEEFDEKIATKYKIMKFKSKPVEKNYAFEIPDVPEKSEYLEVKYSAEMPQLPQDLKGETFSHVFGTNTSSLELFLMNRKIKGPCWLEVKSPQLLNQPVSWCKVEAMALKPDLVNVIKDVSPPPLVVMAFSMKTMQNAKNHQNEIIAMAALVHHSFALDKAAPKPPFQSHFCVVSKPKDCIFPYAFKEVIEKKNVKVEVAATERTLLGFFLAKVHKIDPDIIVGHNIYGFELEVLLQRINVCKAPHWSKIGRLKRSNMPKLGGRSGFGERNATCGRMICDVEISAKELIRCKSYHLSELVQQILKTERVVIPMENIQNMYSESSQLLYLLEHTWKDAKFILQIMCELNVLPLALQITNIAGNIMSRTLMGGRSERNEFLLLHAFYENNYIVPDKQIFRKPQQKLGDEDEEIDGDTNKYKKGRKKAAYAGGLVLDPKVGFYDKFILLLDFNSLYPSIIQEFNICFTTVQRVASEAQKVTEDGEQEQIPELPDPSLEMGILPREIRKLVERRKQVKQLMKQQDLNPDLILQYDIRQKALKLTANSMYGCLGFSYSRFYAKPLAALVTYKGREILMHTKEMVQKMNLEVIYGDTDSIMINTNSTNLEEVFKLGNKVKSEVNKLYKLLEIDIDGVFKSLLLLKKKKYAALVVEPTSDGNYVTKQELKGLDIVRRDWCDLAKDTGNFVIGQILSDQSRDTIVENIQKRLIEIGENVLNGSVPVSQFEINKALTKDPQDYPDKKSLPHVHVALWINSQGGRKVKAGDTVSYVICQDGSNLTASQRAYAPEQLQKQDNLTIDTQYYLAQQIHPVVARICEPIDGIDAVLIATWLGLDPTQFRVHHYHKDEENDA

The target of data set [2] is T1, DNA polymerase alpha catalytic core …. Kind of data set: X-ray crystallography (3.3 Å); crystallized with Mg2+ and dCTP; neither bound in active site (binary complex); 50 mM Bis-Tris pH 6.5, 100 mM NaCl, 5 mM MgCl2, 23 °C; 2 nM labeled duplex, 0.1-16000 nM protein, >30 min. To be noted: protein: recombinant; tags: N-terminal His6-SUMO (His6-SMT) removed by SUMO protease; template 5' overhang 5 nt, one replicative end.

A word on the Kd: it is a measure of binding affinity in units of concentration.

B1: 10-nt RNA primer/30-nt DNA template (DNA:RNA)
DNA: CTTAGGATGGAGAAAGGTAAGATGAAGCCG
RNA: CGGCUUCAUC
On to B1, for which, in data set [1], the Kd is approximately 320 nM.

B2: 10-nt DNA primer/30-nt DNA template (dsDNA)
DNA 1: B1 DNA
DNA 2: CGGCTTCATC
For B2, the Kd in data set [1] is approximately 430 nM.

B3: 13-nt DNA primer/18-nt DNA template (dsDNA)
DNA 1: TAATGGTAGGGGAAGGAT
DNA 2: ATCCTTCCCCTAC
modifications: primer 3'-terminal dideoxycytosine
B3: in data set [2], the binding result is “binds”.
